The values below come from patent US20120171195A1.

The target in one assay is HLA-B*0801 (human) (UniProt P01889). Put plainly: Luminex beads; MAb 1/100; competitor rHLA-E.
In a further assay the target is HLA-B*1511 (human) (UniProt P01889). The assay can be described thus: Luminex beads; MAb 1/100; competitor rHLA-E.
The next assay has as its target HLA-B*4001 (human) (UniProt P01889). The assay can be described thus: Luminex beads; MAb 1/100; competitor rHLA-E.
The target of a further assay is HLA-B*4801 (human) (UniProt P01889). The assay can be described thus: Luminex beads; MAb 1/100; competitor rHLA-E.
The target of assay [1] is HLA-A*2403 (A24) (human). The assay can be described thus: Luminex single-antigen beads; MEM-E/02 1/600; serum Mi114 1/100.
Assay [2] concerns the target HLA-A*2901 (A29) (human) (UniProt P04439). Described as above.
The target of assay [3] is HLA-A*3201 (A32) (human). The assay is described as above.
In another assay the target is HLA-B*5201 (B52) (human). Described as above.
For assay [4], the target named is HLA-B*5901 (B59) (human). The description is as above.
Assay [5] concerns the target HLA-Cw*0304 (human). The assay is described as above.
The target in assay [6] is HLA-Cw*0401 (Cw4) (human). The assay is described as above.
For assay [7], the target named is HLA-Cw*0801 (Cw8) (human) (UniProt P10321). The description is as above.
For assay [8], the target named is HLA-Cw*1701 (Cw17) (human). Described as above.
The target in assay [9] is HLA-Cw*1802 (Cw18) (human) (UniProt P10321). The description is as above.
In assay [10] the target is HLA-A*2403 (A24) (human). The assay can be described thus: Luminex single-antigen beads; MEM-E/02 1/600; serum Mi127 1/100.
Another assay deals with HLA-A*2501 (A25) (human). Described as above.
Assay [11] addresses HLA-A*2901 (A29) (human) (UniProt P04439). Described as above.
Another assay addresses HLA-A*3002 (A30) (human) (UniProt P04439). The assay is described as above.
The target of assay [12] is HLA-A*3201 (A32) (human). Described as above.
Another assay has as its target HLA-A*3301 (A33) (human). The description is as above.
The target in another assay is HLA-B*0801 (B8) (human) (UniProt P01889). The assay is described as above.
The target in a further assay is HLA-B*1301 (B13) (human). Described as above.
The target in a further assay is HLA-B*1513 (B77) (human). The assay is described as above.
A further assay deals with HLA-B*1516 (B63) (human). The assay is described as above.
For the next assay, the target named is HLA-B*2708 (B27) (human) (UniProt P01889). The description is as above.
The next assay concerns the target HLA-B*3901 (B39) (human) (UniProt P01889). The assay is described as above.
The next assay deals with HLA-B*4801 (B48) (human) (UniProt P01889). Described as above.
In a further assay the target is HLA-B*5102 (B51) (human). The assay is described as above.
A further assay has as its target HLA-B*5703 (B57) (human). The assay is described as above.
In assay [13] the target is HLA-B*5901 (B59) (human). The description is as above.
Assay [14] addresses HLA-Cw*0304 (human). The assay is described as above.
Assay [15] concerns the target HLA-Cw*0401 (Cw4) (human). The assay is described as above.
The target of assay [16] is HLA-Cw*0801 (Cw8) (human) (UniProt P10321). Described as above.
In assay [17] the target is HLA-Cw*1203 (Cw12) (human) (UniProt P10321). Described as above.
Assay [18] has as its target HLA-Cw*1502 (Cw15) (human). The description is as above.
The target in assay [19] is HLA-Cw*1701 (Cw17) (human). Described as above.
The target of assay [20] is HLA-Cw*1802 (Cw18) (human) (UniProt P10321). Described as above.

Some results are limits rather than exact numbers.

The term % inhibition denotes the percentage by which the read-out fell short of the control. Read a low % inhibition as a weak effect.

In the case of “murine monoclonal antibody (MAb) MEM-E/02”, the MFI was 219 MFI with HLA-B*0801 (human), 192 MFI in the assay with HLA-B*1511 (human), 235 MFI in the assay with HLA-B*4001 (human) and 224 MFI with HLA-B*4801 (human).
In the case of murine monoclonal antibody MAb MEM-E/02, the MFI was less than 500 MFI with HLA-A*2403 (A24) (human) [1]; less than 500 MFI in the assay with HLA-A*2901 (A29) (human) [2]; 742 MFI with HLA-A*3201 (A32) (human) [3]; 930 MFI in the assay with HLA-B*5901 (B59) (human) [4]; less than 500 MFI with HLA-Cw*0304 (human) [5]; less than 500 MFI in [6]. Also, the MFI (in assay [7]; in assay [8]; in assay [9]; with HLA-A*2901 (A29) (human) [11]; with HLA-A*3002 (A30) (human); with HLA-A*3201 (A32) (human) [12]) was less than 500 MFI each time. Besides, the MFI with HLA-A*3301 (A33) (human) was 3170 MFI; in the assay with HLA-B*0801 (B8) (human), less than 500 MFI; with HLA-B*1301 (B13) (human), less than 500 MFI; with HLA-B*1513 (B77) (human), less than 500 MFI; with HLA-B*1516 (B63) (human), 1840 MFI; with HLA-B*2708 (B27) (human), 2430 MFI. Moreover, the MFI with HLA-B*3901 (B39) (human) is 1480 MFI; in the assay with HLA-B*5102 (B51) (human), 2520 MFI; with HLA-B*5703 (B57) (human), 917 MFI; in the assay with HLA-B*5901 (B59) (human) [13], 848 MFI; in the assay with HLA-Cw*0304 (human) [14] it was less than 500 MFI; in [15] it was less than 500 MFI. Also, the MFI in [16], in assay [17], in assay [18], in assay [19] and in assay [20] was less than 500 MFI each time. Also, the % inhibition in the assay with HLA-B*5201 (B52) (human) amounted to 88%; with HLA-A*2403 (A24) (human) [10], 36%; in the assay with HLA-A*2501 (A25) (human), 36%; with HLA-B*3901 (B39) (human), 16%; with HLA-B*4801 (B48) (human), 16%; with HLA-B*5901 (B59) (human) [13], 8%.
